For assay [1], the target named is T1, purified murine FAP antigen (murine, UniProt P97321 26-761, limits assumed). Put plainly: ELISA, cross-reactivity (FIG. 57A). In general terms: In an ELISA, binding on a coated surface is turned into a signal by an enzyme label.
Assay [2] deals with T2, purified human FAP antigen (human, UniProt Q12884 26-760, limits assumed). Put plainly: ELISA, plate coated with purified human FAP antigen (FIG. 56F-56G). Here is the method:
(§1) Binding kinetics of the novel antigen binding constructs to a purified human FAP antigen was assessed using ELISA. For this assay, a 96 well ELISA plate was coated with the human-FAP antigen diluted to a concentration of 2 mg/mL in coating buffer (0.05M sodium carbonate-bicarbonate buffer, pH 9.6). 100 μl of this coating solution was added to each well in the plate and incubate at 4° C. overnight. The plate was washed 3 times with 300 μl per well of washing buffer (PBS with 0.05% Tween-20). After the last wash, the plate was blocked by adding to each well 200 μl of blocking buffer (PBS with 1% BSA) warmed to room temperature. The plate was then incubated at room temperature for 1 hour under gentle agitation. After blocking, the plate was washed 3 times with 300 μl per well of washing buffer. Dilution samples for each minibody were created by making 2.5× dilutions from a starting sample at 100 ng/mL, or 250 ng/mL, or 1000 ng/mL or 3000 ng/mL in 100 μL sample buffer (PBS with 1% BSA). The dilution samples were transferred to the assay plate and incubated at room temperature for 1 hour under gentle agitation. The plate was then washed 3 times with 300 μl per well of washing buffer.
(§2) Detection was performed by adding 100 μl of HRP labeled detection secondary antibody at an appropriate dilution and incubating the plate at room temperature for 1 hour under gentle agitation. The plate was then washed 3 times with 300 μl per well of washing buffer. For color development, 100 μl of TMB substrate regent, pre-warmed to room temperature, was added to the plate and incubated in the dark at room temperature for 15 min. The reaction was then stopped by adding 100 μl of 650 nm stop solution to the plate and mixed for 1 min at room temperature under gentle agitation. The plate is recorded by reading OD at 650 nm in a plate reader within 20 min after terminating the reaction.

Assay [3] deals with T2, purified human FAP antigen. In words: ELISA, plate coated with purified human FAP antigen (FIG. 91D). Here is the method: as §1
Assay [4] has as its target T2, purified human FAP antigen. Put plainly: ELISA, plate coated with purified human FAP antigen (FIG. 91B). Here is the method: as §1
Assay [5] concerns the target T1, purified murine FAP antigen. In words: ELISA, cross-reactivity (FIG. 92).
The target in assay [6] is T2, purified human FAP antigen. Put plainly: ELISA, plate coated with purified human FAP antigen (FIG. 91E). Here is the method: as §1
For assay [7], the target named is FAP (UniProt Q12884 26-760, limits assumed). In words: binding kinetics, method not stated (FIG. 42B).
Assay [8] deals with T2, purified human FAP antigen. In words: ELISA, plate coated with purified human FAP antigen (FIG. 56A-56C). On the procedure: as §1, §2
For assay [9], the target named is T1, purified murine FAP antigen. Put plainly: ELISA, cross-reactivity (FIG. 57B).
Assay [10] has as its target T2, purified human FAP antigen. Put plainly: ELISA, plate coated with purified human FAP antigen (FIG. 91F). Here is the method:
as §1

For orientation: Kd means the free concentration of one partner at which half of the binding sites on the other are occupied at equilibrium, for simple one-to-one binding. A high value points to weaker binding. In general, koff refers to the first-order rate constant of dissociation. One may read the kon as a measure of how fast the partners come together.

T1 sequence (P97321 26-761 limits assumed): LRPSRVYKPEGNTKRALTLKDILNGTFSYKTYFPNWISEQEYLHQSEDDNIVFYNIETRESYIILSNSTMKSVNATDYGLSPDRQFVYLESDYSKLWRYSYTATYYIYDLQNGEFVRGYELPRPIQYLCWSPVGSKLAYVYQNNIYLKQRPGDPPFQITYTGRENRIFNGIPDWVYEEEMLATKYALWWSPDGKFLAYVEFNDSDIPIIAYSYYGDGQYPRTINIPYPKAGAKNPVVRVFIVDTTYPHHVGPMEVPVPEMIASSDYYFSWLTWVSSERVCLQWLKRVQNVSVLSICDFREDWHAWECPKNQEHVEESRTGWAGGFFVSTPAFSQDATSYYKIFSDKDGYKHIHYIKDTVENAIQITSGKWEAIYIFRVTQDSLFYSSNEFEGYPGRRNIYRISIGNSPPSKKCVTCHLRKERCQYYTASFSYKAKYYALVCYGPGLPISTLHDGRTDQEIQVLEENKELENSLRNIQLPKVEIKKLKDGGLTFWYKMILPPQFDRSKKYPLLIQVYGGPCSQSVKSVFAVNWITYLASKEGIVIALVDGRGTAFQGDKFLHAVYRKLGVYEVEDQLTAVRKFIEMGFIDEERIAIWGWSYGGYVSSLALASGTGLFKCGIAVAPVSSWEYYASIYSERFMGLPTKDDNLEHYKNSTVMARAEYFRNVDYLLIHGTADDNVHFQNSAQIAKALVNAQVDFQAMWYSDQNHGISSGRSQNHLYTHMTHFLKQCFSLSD

B1: IAB16C3-26 (other)
chain: EIVLTQSPGTLSLSPGERATLSCRASQSVSRSYLAWYQQKPGQAPRLLIIGASTRATGIPDRFSGSGSGTDFTLTISRLEPEDFAVYYCQQGQVIPPTFGQGTKVEIKGGGSGGGGEVQLLESGGGLVQPGGSLRLSCAASGFTFSSHAMSWVRQAPGKGLEWVSAIWASGEQYYADSVKGRFTISRDNSKNTLYLQMNSLRAEDTAVYYCAKGWLGNFDYWGQGTLVTVSSGGCPPCPPC
Turning to B1, the binding result in [1] is reported as “binds”. The molecule further registered a Kd in assay [2] of approximately 1 nM.

B2: IAB16M2-48 (other)
chain: QVQLVQSGAEVKKPGSSVKVSCKASGFSLTNYDINWVRQAPGQGLEWMGLIWTGGGTNYNQKFQGRVTITKDNSTSTAYMELSSLRSEDTAVYYCVRGGPLVWYALDYWGQGTLVTVSSGSTSGGGSGGGSGGGGSSDIQMTQSPSSLSASVGDRVTITCKASQDVSTAVAWYQQKPGKAPKLLIYSASYRYTGVPSRFSGSGSGTDFTLTISSLQPEDFATYYCQQHYSNPRTFGQGTKVEIK
Turning to B2, in assay [3], the dissociation constant (Kd) is approximately 0.1 nM.

B3: IAB16M1-42 (other)
chain: DIQMTQSPSSLSASVGDRVTITCKASQDVSTAVAWYQQKPGKAPKLLIYSASYRYTGVPSRFSGSGSGTDFTFTISSLQPEDIATYYCQQHYSNPRTFGGGTKVEIKGSTSGGGSGGGSGGGGSSQVQLQESGPGLVKPSETLSLTCTVSGFSLTNYDINWIRQPPGKGLEWIGLIWTGGGTNYNPSLKSRVTISKDTSKNQFSLKLSSVTAADTAVYYCVRGGPLVWYALDYWGQGTLVTVSSEPKSSDKTHTCPPCPPCGGGSSGGGSGGQPREPQVYTLPPSREEMTKNQVSLTCLVKGFYPSDIAVEWESNGQPENNYKTTPPVLDSDGSFFLYSKLTVDKSRWQQGNVFSCSVMHEALHNHYTQKSLSLSPG
In assay [4], B3 displayed an equilibrium dissociation constant (Kd) of approximately 0.1 nM.

B4: IAB16M2-43 (other)
chain: QVQLQESGPGLVKPSETLSLTCTVSGFSLTNYDINWIRQPPGKGLEWIGLIWTGGGTNYNPSLKSRVTISKDTSKNQFSLKLSSVTAADTAVYYCVRGGPLVWYALDYWGQGTLVTVSSGSTSGGGSGGGSGGGGSSDIQMTQSPSSLSASVGDRVTITCKASQDVSTAVAWYQQKPGKAPKLLIYSASYRYTGVPSRFSGSGSGTDFTFTISSLQPEDIATYYCQQHYSNPRTFGGGTKVEIKEPKSSDKTHTCPPCPPCGGGSSGGGSGGQPREPQVYTLPPSREEMTKNQVSLTCLVKGFYPSDIAVEWESNGQPENNYKTTPPVLDSDGSFFLYSKLTVDKSRWQQGNVFSCSVMHEALHNHYTQKSLSLSPG
As to B4, in [5], the binding result is reported as “binds”. This molecule also gave an equilibrium dissociation constant (Kd) in [4] of approximately 0.1 nM.

B5: IAB16M2-53 (other)
chain: QVQLQESGPGLVKPSETLSLTCTVSGFSLTNYDINWIRQPPGKGLEWIGLIWTGGGTNYNPSLKSRVTISKDTSKSQFSLKLSSVTAADTAVYYCVRGGPLVWYALDYWGQGTLVTVSSGSTSGGGSGGGSGGGGSSDIQMTQSPSSLSASVGDRVTITCKASQDVSTAVAWYQQKPGKAPKLLIYSASYRYTGVPSRFSGSGSGTDFTFTISSLQPEDIATYYCQQHYSNPRTFGGGTKVEIKEPKSSDKTHTCPPCPPCGGGSSGGGSGGQPREPQVYTLPPSREEMTKNQVSLTCLVKGFYPSDIAVEWESNGQPENNYKTTPPVLDSDGSFFLYSKLTVDKSRWQQGNVFSCSVMHEALHNHYTQKSLSLSPG
With B5, the Kd in assay [6] is approximately 0.1 nM.

B6: IAB16M2-51 (HC-N76S) (other)
chain: QVQLQESGPGLVKPSETLSLTCTVSGFSLTNYDINWIRQPPGKGLEWIGLIWTGGGTNYNPSLKSRVTISKDNSKNQFSLKLSSVTAADTAVYYCVRGGPLVWYALDYWGQGTLVTVSSGSTSGGGSGGGSGGGGSSDIQMTQSPSSLSASVGDRVTITCKASQDVSTAVAWYQQKPGKAPKLLIYSASYRYTGVPSRFSGSGSGTDFTFTISSLQPEDIATYYCQQHYSNPRTFGGGTKVEIKEPKSSDKTHTCPPCPPCGGGSSGGGSGGQPREPQVYTLPPSREEMTKNQVSLTCLVKGFYPSDIAVEWESNGQPENNYKTTPPVLDSDGSFFLYSKLTVDKSRWQQGNVFSCSVMHEALHNHYTQKSLSLSPG
Consider B6, for which the dissociation constant (Kd) in [3] is approximately 0.1 nM.

B7: IAB16M2-52 (other)
chain: QVQLQESGPGLVKPSETLSLTCTVSGFSLTNYDINWIRQPPGKGLEWIGLIWTGGGTNYNPSLKSRVTISKDTSKNQFSLKLSSVTAADTAVYYCVRGGPLVWYALDYWGQGTLVTVSSGSTSGGGSGGGSGGGGSSDIVMTQSPSSLSASVGDRVTITCKASQDVSTAVAWYQQKPGKAPKLLIYSASYRYTGVPSRFSGSGSGTDFTFTISSLQPEDIATYYCQQHYSNPRTFGGGTKVEIKEPKSSDKTHTCPPCPPCGGGSSGGGSGGQPREPQVYTLPPSREEMTKNQVSLTCLVKGFYPSDIAVEWESNGQPENNYKTTPPVLDSDGSFFLYSKLTVDKSRWQQGNVFSCSVMHEALHNHYTQKSLSLSPG
Turning to B7, in [6], the dissociation constant (Kd) was approximately 0.1 nM.

B8: IAB16M2-37 (other)
chain: QVQLVQSGAEVKKPGASVKVSCKASGYTFTEYTIHWVRQAPGQRLEWIGGINPNNGIPNYNQKFKGRVTITVDTSASTAYMELSSLRSEDTAVYYCARRRIAYGYDEGHAMDYWGQGTLVTVSSGSTSGGGSGGGSGGGGSSDIVMTQSPDSLAVSLGERATINCKSSQSLLYSRNQKNYLAWYQQKPGQPPKLLIFWASTRESGVPDRFSGSGSGTDFTLTISRLEPEDFAVYYCQQYYSYPLTFGQGTKVEIKEPKSSDKTHTCPPCPPCGGGSSGGGSGGQPREPQVYTLPPSREEMTKNQVSLTCLVKGFYPSDIAVEWESNGQPENNYKTTPPVLDSDGSFFLYSKLTVDKSRWQQGNVFSCSVMHEALHNHYTQKSLSLSPG
notes: also called IAB16B2-37
In assay [7], B8 yielded a Kd of 1.15 nM, a koff of 0.00108 s⁻¹ and a kon of 935000 M⁻¹ s⁻¹. Further, in assay [8], the Kd was approximately 0.1 nM. In assay [9], the “fold change of KD, murine FAP against human FAP” value was approximately 10 fold.

B9: IAB16M2-50 (other)
chain: DVQLVESGGGLVKPGGSLRLSCTVSGFTFSSYTMSWVRQAPGKGLEWVSTISSGGSYTYYADSVKGRFTISRDNAKNSLYLQMNSLRAEDTAVYYCTRDQVGYAMDYWGQGTLVTVSSGSTSGGGSGGGSGGGGSSDIQMTQSPSSLSASVGDRVTITCKASQDVGIAVAWYQQKPGKAPKLLIYWASTRHTGVPSRFSGSGSGTDFTFTISSLQPEDIATYYCQQYSRYPYTFGQGTKLEIKEPKSSDKTHTCPPCPPCGGGSSGGGSGGQPREPQVYTLPPSREEMTKNQVSLTCLVKGFYPSDIAVEWESNGQPENNYKTTPPVLDSDGSFFLYSKLTVDKSRWQQGNVFSCSVMHEALHNHYTQKSLSLSPG
B9 showed a Kd in assay [10] of approximately 10 nM.

The values are drawn from patent US20240390531A1 (IMAGINAB, published 2024).
